The values that follow are results of earlier work, collected in publication PMC8980424.

A word on the Kd: it is the free concentration of one partner at which half of the binding sites on the other are occupied at equilibrium, for simple one-to-one binding.

Targets include IFNAR2 (Mus musculus) (UniProt O35664); IFNAR1 (Mus musculus) (UniProt P33896); IFNAR2 (Homo sapiens) (UniProt P48551); IFNAR1 (Homo sapiens) (UniProt P17181).
Sequence of UniProt P33896 (P33896 27-429): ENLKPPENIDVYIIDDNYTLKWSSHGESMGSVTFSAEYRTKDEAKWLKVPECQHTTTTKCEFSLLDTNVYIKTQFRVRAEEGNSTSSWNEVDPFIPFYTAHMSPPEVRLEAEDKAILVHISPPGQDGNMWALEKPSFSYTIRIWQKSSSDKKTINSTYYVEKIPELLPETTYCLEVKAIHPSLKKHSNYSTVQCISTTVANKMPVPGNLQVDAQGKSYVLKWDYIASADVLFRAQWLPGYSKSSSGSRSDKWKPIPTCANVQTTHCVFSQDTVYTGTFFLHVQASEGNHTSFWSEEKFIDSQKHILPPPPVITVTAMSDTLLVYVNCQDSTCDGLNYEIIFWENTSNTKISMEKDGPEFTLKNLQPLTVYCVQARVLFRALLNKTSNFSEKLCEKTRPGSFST
Sequence of UniProt P48551 (P48551 27-243): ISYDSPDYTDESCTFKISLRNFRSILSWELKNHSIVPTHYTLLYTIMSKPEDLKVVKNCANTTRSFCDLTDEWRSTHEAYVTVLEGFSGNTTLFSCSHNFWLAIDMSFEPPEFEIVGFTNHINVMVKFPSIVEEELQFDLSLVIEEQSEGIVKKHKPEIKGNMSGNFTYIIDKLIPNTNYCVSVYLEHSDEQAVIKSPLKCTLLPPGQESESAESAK
Sequence of UniProt P17181 (P17181 28-436): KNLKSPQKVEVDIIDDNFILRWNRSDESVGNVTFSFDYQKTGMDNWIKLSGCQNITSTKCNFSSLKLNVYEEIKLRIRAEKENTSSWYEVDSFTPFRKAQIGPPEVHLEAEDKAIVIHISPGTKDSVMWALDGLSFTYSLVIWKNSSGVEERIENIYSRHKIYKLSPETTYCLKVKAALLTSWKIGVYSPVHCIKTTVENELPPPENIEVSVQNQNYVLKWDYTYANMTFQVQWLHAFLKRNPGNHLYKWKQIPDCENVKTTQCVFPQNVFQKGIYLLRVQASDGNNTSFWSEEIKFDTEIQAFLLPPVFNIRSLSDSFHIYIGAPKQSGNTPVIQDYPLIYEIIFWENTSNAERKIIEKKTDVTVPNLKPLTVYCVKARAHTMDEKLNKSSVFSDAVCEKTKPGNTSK
Sequence of UniProt O35664 (O35664 22-242): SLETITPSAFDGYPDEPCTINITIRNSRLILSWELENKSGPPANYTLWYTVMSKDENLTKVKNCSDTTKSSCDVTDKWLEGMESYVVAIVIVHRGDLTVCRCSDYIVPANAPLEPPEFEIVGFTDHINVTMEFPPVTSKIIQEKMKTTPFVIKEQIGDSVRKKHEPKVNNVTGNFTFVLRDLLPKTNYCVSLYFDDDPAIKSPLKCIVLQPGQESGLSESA

For the substance Interferon beta (from UniProt P01575), the Kd was 1700 nM in the series with IFNAR2 (Mus musculus) and 10 nM in the series with IFNAR1 (Mus musculus).

For Interferon beta (from UniProt P01574), the Kd was 0.1 nM with IFNAR2 (Homo sapiens) and 30 nM with IFNAR1 (Homo sapiens).
